First the molecules themselves.
B1: Tom1(437–463), Myosin VI-binding motif (domain or fragment, human, UniProt O60784-2 437-463, looked up)
chain: GVTSEGKFDKFLEERAKAADRLPNLSS
notes: monomer by light scattering and ultracentrifugation; also called Tom1 MBM; source: E. coli BL21 (DE3), purified (Ni-NTA, SEC); not shown: thioredoxin, N-terminal, cleaved; His6, N-terminal, cleaved
B2: Tom1(437–493) (domain or fragment, human, UniProt O60784-2 437-493, looked up)
chain: GVTSEGKFDKFLEERAKAADRLPNLSSPSAEGPPGPPSGPAPRKKTQEKDDDMLFAL
notes: source: E. coli BL21 (DE3), purified (Ni-NTA, SEC); not shown: thioredoxin, N-terminal, cleaved; His6, N-terminal, cleaved
B3: Tom1(392–493) (domain or fragment, human, UniProt O60784-2 392-493, looked up)
chain: TDGLAGALDARQQSTGAIPVTQACLMEDIEQWLSTDVGNDAEEPKGVTSEGKFDKFLEERAKAADRLPNLSSPSAEGPPGPPSGPAPRKKTQEKDDDMLFAL
notes: 15N-labelled in one NMR titration; source: E. coli BL21 (DE3), purified (Ni-NTA, SEC); not shown: thioredoxin, N-terminal, cleaved; His6, N-terminal, cleaved
B4: Tom1(215–493) (domain or fragment, human, UniProt O60784-2 215-493, looked up)
chain: EQIGKLRSELEMVSGNVRVMSEMLTELVPTQAEPADLELLQELNRTCRAMQQRVLELIPQIANEQLTEELLIVNDNLNNVFLRHERFERFRTGQTTKAPSEAEPAADLIDMGPDPAATGNLSSQLAGMNLGSSSVRAGLQSLEASGRLEDEFDMFALTRGSSLADQRKEVKYEAPQATDGLAGALDARQQSTGAIPVTQACLMEDIEQWLSTDVGNDAEEPKGVTSEGKFDKFLEERAKAADRLPNLSSPSAEGPPGPPSGPAPRKKTQEKDDDMLFAL
notes: as for B2
B5: Tom1(392–463) (domain or fragment, human, UniProt O60784-2 392-463, looked up)
chain: TDGLAGALDARQQSTGAIPVTQACLMEDIEQWLSTDVGNDAEEPKGVTSEGKFDKFLEERAKAADRLPNLSS
notes: as for B3
B6: C-terminal cargo-binding domain (CBD) of Myosin VI (residues 1157–1285) (domain or fragment, human, UniProt Q9UM54-1 1157-1285, looked up)
chain: ARQREIEMNRQQRFFRIPFIRPADQYKDPQSKKKGWWYAHFDGPWIARQMELHPDKPPILLVAGKDDMEMCELNLEETGLTRKRGAEILPRQFEEIWERCGGIQYLQNAIESRQARPTYATAMLQSLLK
notes: monomer by light scattering and ultracentrifugation; 15N-labelled in some NMR experiments; also called C-terminal CBD of Myosin VI; source: E. coli BL21 (DE3), purified (Ni-NTA, SEC); not shown: thioredoxin, N-terminal, cleaved; His6, N-terminal, cleaved

One assay addresses B6. The assay is described as follows: SEC + SEC-MALS + AUC; analytical gel filtration, multi-angle light scattering (20 mM Tris-HCl pH 7.9, 100 mM NaCl, 1 mM DTT) and sedimentation velocity (20 °C) of each protein alone and of the complex. The conditions noted are these: both partners purified.
Broadly, the stoichiometry N is the number of molecules, sites or subunits per partner or assembly. With B1, the “stoichiometry N” value was determined as 1.

A further assay has as its target B6. The assay is described as follows: ITC; 25 °C, 20 mM Tris pH 7.9, 100 mM NaCl, 1 mM DTT; 50 µM protein in the cell, 500 µM in the syringe; one-site binding model. The conditions noted are these: both partners purified. A general note: In ITC the heat of successive injections is recorded.
The Kd is the constant that tells how readily two partners part at equilibrium. Lower therefore signals higher affinity. On to B2, for which the Kd amounted to 760 nM, the dH is -12.7 ± 0.11 kcal/mol and the “stoichiometry N” value came out at 0.83 ± 0.01.

In the case of B1, the Kd came out at 670 nM, the dH was -14.9 ± 0.1 kcal/mol and the “stoichiometry N” value turned out to be 0.74 ± 0.01.

On to B3, for which the Kd amounted to 930 nM, the dH was -9.9 ± 0.11 kcal/mol and the “stoichiometry N” value amounted to 1.12 ± 0.01.

For the molecule B4, the dH was -7.61 ± 0.09 kcal/mol and the “stoichiometry N” value turned out to be 1.44 ± 0.01.

As for B5, the equilibrium dissociation constant (Kd) amounted to 760 nM, the dH was -10.6 ± 0.16 kcal/mol and the “stoichiometry N” value turned out to be 0.91 ± 0.01.

The target in a further assay is B4. The description is as above. The following applies: both partners purified.
B6: the dissociation constant Kd is 2130 nM.
